# Data reported in US20110105394A1 (Novo Nordisk, published 2011).
# *1 amine or outer side, *2 acyl side, *3 side chain or, on linkers, in order; H or OH if unused. Bridges are numbered along the chain shown (N, C = ends). Where no end group is shown, it is not given here. The star is where a group is joined. X2 = (S)‑4‑Carboxy‑4‑(19-carboxynonadecanoylamino)butyryl, O=C(O)CCCCCCCCCCCCCCCCCCC(=O)N[C@@H](CCC(=O)*)C(=O)O; C20 diacid = O=C(O)CCCCCCCCCCCCCCCCCCC(=O)*; C18 diacid = O=C(O)CCCCCCCCCCCCCCCCC(=O)*; γGlu = O=C(O)[C@H](CCC(=O)[*:2])N[*:1]; AEEA = NCCOCCOCC(=O)O
# T1: Amylin 3(a) receptor (human calcitonin receptor (CTa) with RAMP-3) (human, UniProt P30988 25-474; O60896 24-148, limits assumed)
# T1 sequence (looked up) 1: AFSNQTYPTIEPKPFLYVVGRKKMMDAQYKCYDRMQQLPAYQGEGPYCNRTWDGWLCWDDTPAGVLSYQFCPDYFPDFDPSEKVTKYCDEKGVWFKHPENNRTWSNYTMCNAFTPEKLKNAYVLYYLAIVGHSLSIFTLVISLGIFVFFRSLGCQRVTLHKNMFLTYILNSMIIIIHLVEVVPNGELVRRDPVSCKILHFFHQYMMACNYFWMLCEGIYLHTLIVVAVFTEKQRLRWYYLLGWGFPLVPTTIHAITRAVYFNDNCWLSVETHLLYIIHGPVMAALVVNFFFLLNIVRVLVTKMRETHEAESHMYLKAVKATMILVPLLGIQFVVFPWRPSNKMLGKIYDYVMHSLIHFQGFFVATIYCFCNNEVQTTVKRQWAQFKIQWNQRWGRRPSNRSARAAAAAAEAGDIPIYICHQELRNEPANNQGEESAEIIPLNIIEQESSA
# T1 sequence (looked up) 2: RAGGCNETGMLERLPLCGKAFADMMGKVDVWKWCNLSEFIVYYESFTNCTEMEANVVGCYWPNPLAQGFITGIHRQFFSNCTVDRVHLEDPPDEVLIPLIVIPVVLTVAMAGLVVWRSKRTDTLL
# B1: N-alpha-[(S)-4-Carboxy-4-(19-carboxynonadecanoylamino)butyryl]-[His17,Glu24]-pramlintide (2-37) (peptide)
# peptide: {C20 diacid-γGlu}-CNTATCATQRLANFLHHSSNNFEPILPPTNVGSNTY-NH2
# modifications: disulfide 1-6
# SMILES: CC[C@H](C)[C@H](NC(=O)[C@@H]1CCCN1C(=O)[C@H](CCC(=O)O)NC(=O)[C@H](Cc1ccccc1)NC(=O)[C@H](CC(N)=O)NC(=O)[C@H](CC(N)=O)NC(=O)[C@H](CO)NC(=O)[C@H](CO)NC(=O)[C@H](Cc1c[nH]cn1)NC(=O)[C@H](Cc1c[nH]cn1)NC(=O)[C@H](CC(C)C)NC(=O)[C@H](Cc1ccccc1)NC(=O)[C@H](CC(N)=O)NC(=O)[C@H](C)NC(=O)[C@H](CC(C)C)NC(=O)[C@H](CCCNC(=N)N)NC(=O)[C@H](CCC(N)=O)NC(=O)[C@@H](NC(=O)[C@H](C)NC(=O)[C@@H]1CSSC[C@H](NC(=O)CC[C@H](NC(=O)CCCCCCCCCCCCCCCCCCC(=O)O)C(=O)O)C(=O)N[C@@H](CC(N)=O)C(=O)N[C@@H]([C@@H](C)O)C(=O)N[C@@H](C)C(=O)N[C@@H]([C@@H](C)O)C(=O)N1)[C@@H](C)O)C(=O)N[C@@H](CC(C)C)C(=O)N1CCC[C@H]1C(=O)N1CCC[C@H]1C(=O)N[C@H](C(=O)N[C@@H](CC(N)=O)C(=O)N[C@H](C(=O)NCC(=O)N[C@@H](CO)C(=O)N[C@@H](CC(N)=O)C(=O)N[C@H](C(=O)N[C@@H](Cc1ccc(O)cc1)C(N)=O)[C@@H](C)O)C(C)C)[C@@H](C)O
# B2: N-alpha-[2-(2-{2-[2-(2-{2-[(S)-4-Carboxy-4-(17-carboxyheptadecanoylamino)butyrylamino]ethoxy}ethoxy)acetylamino]ethoxy}ethoxy)acetyl][Arg1,His17]-pramlintide (peptide)
# peptide: {C18 diacid-γGlu-AEEA-AEEA}-RCNTATCATQRLANFLHHSSNNFGPILPPTNVGSNTY-NH2
# modifications: disulfide 2-7
# SMILES: CC[C@H](C)[C@H](NC(=O)[C@@H]1CCCN1C(=O)CNC(=O)[C@H](Cc1ccccc1)NC(=O)[C@H](CC(N)=O)NC(=O)[C@H](CC(N)=O)NC(=O)[C@H](CO)NC(=O)[C@H](CO)NC(=O)[C@H](Cc1c[nH]cn1)NC(=O)[C@H](Cc1c[nH]cn1)NC(=O)[C@H](CC(C)C)NC(=O)[C@H](Cc1ccccc1)NC(=O)[C@H](CC(N)=O)NC(=O)[C@H](C)NC(=O)[C@H](CC(C)C)NC(=O)[C@H](CCCNC(=N)N)NC(=O)[C@H](CCC(N)=O)NC(=O)[C@@H](NC(=O)[C@H](C)NC(=O)[C@@H]1CSSC[C@H](NC(=O)[C@H](CCCNC(=N)N)NC(=O)COCCOCCNC(=O)COCCOCCNC(=O)CC[C@H](NC(=O)CCCCCCCCCCCCCCCCC(=O)O)C(=O)O)C(=O)N[C@@H](CC(N)=O)C(=O)N[C@@H]([C@@H](C)O)C(=O)N[C@@H](C)C(=O)N[C@@H]([C@@H](C)O)C(=O)N1)[C@@H](C)O)C(=O)N[C@@H](CC(C)C)C(=O)N1CCC[C@H]1C(=O)N1CCC[C@H]1C(=O)N[C@H](C(=O)N[C@@H](CC(N)=O)C(=O)N[C@H](C(=O)NCC(=O)N[C@@H](CO)C(=O)N[C@@H](CC(N)=O)C(=O)N[C@H](C(=O)N[C@@H](Cc1ccc(O)cc1)C(N)=O)[C@@H](C)O)C(C)C)[C@@H](C)O
# B3: N-alpha-[(S)-4-Carboxy-4-(19-carboxynonadecanoylamino)butyryl]-Glu-Arg-[Glu1,Arg17,Ala25,Pro26,Ser28,Ser29]-pramlintide (peptide)
# peptide: X2-ERECNTATCATQRLANFLRHSSNNFGAPLSSTNVGSNTY-NH2
# modifications: disulfide 4-9
# SMILES: CC(C)C[C@H](NC(=O)[C@H](CCCNC(=N)N)NC(=O)[C@H](CCC(N)=O)NC(=O)[C@@H](NC(=O)[C@H](C)NC(=O)[C@@H]1CSSC[C@H](NC(=O)[C@H](CCC(=O)O)NC(=O)[C@H](CCCNC(=N)N)NC(=O)[C@H](CCC(=O)O)NC(=O)CC[C@H](NC(=O)CCCCCCCCCCCCCCCCCCC(=O)O)C(=O)O)C(=O)N[C@@H](CC(N)=O)C(=O)N[C@@H]([C@@H](C)O)C(=O)N[C@@H](C)C(=O)N[C@@H]([C@@H](C)O)C(=O)N1)[C@@H](C)O)C(=O)N[C@@H](C)C(=O)N[C@@H](CC(N)=O)C(=O)N[C@@H](Cc1ccccc1)C(=O)N[C@@H](CC(C)C)C(=O)N[C@@H](CCCNC(=N)N)C(=O)N[C@@H](Cc1c[nH]cn1)C(=O)N[C@@H](CO)C(=O)N[C@@H](CO)C(=O)N[C@@H](CC(N)=O)C(=O)N[C@@H](CC(N)=O)C(=O)N[C@@H](Cc1ccccc1)C(=O)NCC(=O)N[C@@H](C)C(=O)N1CCC[C@H]1C(=O)N[C@@H](CC(C)C)C(=O)N[C@@H](CO)C(=O)N[C@@H](CO)C(=O)N[C@H](C(=O)N[C@@H](CC(N)=O)C(=O)N[C@H](C(=O)NCC(=O)N[C@@H](CO)C(=O)N[C@@H](CC(N)=O)C(=O)N[C@H](C(=O)N[C@@H](Cc1ccc(O)cc1)C(N)=O)[C@@H](C)O)C(C)C)[C@@H](C)O
# B4: N-alpha-[(S)-4-Carboxy-4-(19-carboxynonadecanoylamino)butyryl]-His-[His1,His17,Arg18]-pramlintide (peptide)
# peptide: HHCNTATCATQRLANFLHRSSNNFGPILPPTNVGSNTY-NH2
# modifications: disulfide 3-8; not fully specified (N-terminus); printed as N-alpha-[(S)-4-Carboxy-4-(19-carboxynonadecanoylamino)butyryl]-His-[His1,His17,Arg18]-pramlintide
# B5: N-alpha-[(S)-4-Carboxy-4-(19-carboxynonadecanoylamino)butyryl]-Glu-Arg-[Glu1,Asp14,His17,Gln21,Ala25,Pro26,Ser28,Ser29]-pramlintide (peptide)
# peptide: X2-ERECNTATCATQRLADFLHHSSQNFGAPLSSTNVGSNTY-NH2
# modifications: disulfide 4-9
# SMILES: CC(C)C[C@H](NC(=O)[C@H](CCCNC(=N)N)NC(=O)[C@H](CCC(N)=O)NC(=O)[C@@H](NC(=O)[C@H](C)NC(=O)[C@@H]1CSSC[C@H](NC(=O)[C@H](CCC(=O)O)NC(=O)[C@H](CCCNC(=N)N)NC(=O)[C@H](CCC(=O)O)NC(=O)CC[C@H](NC(=O)CCCCCCCCCCCCCCCCCCC(=O)O)C(=O)O)C(=O)N[C@@H](CC(N)=O)C(=O)N[C@@H]([C@@H](C)O)C(=O)N[C@@H](C)C(=O)N[C@@H]([C@@H](C)O)C(=O)N1)[C@@H](C)O)C(=O)N[C@@H](C)C(=O)N[C@@H](CC(=O)O)C(=O)N[C@@H](Cc1ccccc1)C(=O)N[C@@H](CC(C)C)C(=O)N[C@@H](Cc1c[nH]cn1)C(=O)N[C@@H](Cc1c[nH]cn1)C(=O)N[C@@H](CO)C(=O)N[C@@H](CO)C(=O)N[C@@H](CCC(N)=O)C(=O)N[C@@H](CC(N)=O)C(=O)N[C@@H](Cc1ccccc1)C(=O)NCC(=O)N[C@@H](C)C(=O)N1CCC[C@H]1C(=O)N[C@@H](CC(C)C)C(=O)N[C@@H](CO)C(=O)N[C@@H](CO)C(=O)N[C@H](C(=O)N[C@@H](CC(N)=O)C(=O)N[C@H](C(=O)NCC(=O)N[C@@H](CO)C(=O)N[C@@H](CC(N)=O)C(=O)N[C@H](C(=O)N[C@@H](Cc1ccc(O)cc1)C(N)=O)[C@@H](C)O)C(C)C)[C@@H](C)O
# B6: N-alpha-[(S)-4-Carboxy-4-(19-carboxynonadecanoylamino)butyryl]-Glu-[Glu1,Arg17]-pramlintide (peptide)
# peptide: EECNTATCATQRLANFLRHSSNNFGPILPPTNVGSNTY-NH2
# modifications: disulfide 3-8; not fully specified (N-terminus); printed as N-alpha-[(S)-4-Carboxy-4-(19-carboxynonadecanoylamino)butyryl]-Glu-[Glu1,Arg17]-pramlintide
# B7: N-alpha-[(S)-4-Carboxy-4-(19-carboxynonadecanoylamino)butyryl]-[His17]-pramlintide (2-37) (peptide)
# peptide: {C20 diacid-γGlu}-CNTATCATQRLANFLHHSSNNFGPILPPTNVGSNTY-NH2
# modifications: disulfide 1-6
# B8: N-alpha-[(S)-4-Carboxy-4-(19-carboxynonadecanoylamino)butyryl]-Glu-[Glu1,His17]-pramlintide (peptide)
# peptide: EECNTATCATQRLANFLHHSSNNFGPILPPTNVGSNTY-NH2
# modifications: disulfide 3-8; not fully specified (N-terminus); printed as N-alpha-[(S)-4-Carboxy-4-(19-carboxynonadecanoylamino)butyryl]-Glu-[Glu1,His17]-pramlintide
# Biological target: T1, Amylin 3(a) receptor (human calcitonin …)
# Test: cell-based or functional assay
row,Binder,Potency Luciferase [pM]
1,B1,100
2,B2,30
3,B3,200
4,B4,200
5,B5,60
6,B6,300
7,B7,100
8,B8,300
